Results reported in article PMC13232553.

Target: mPiezo1-ALFA_(2420)-HRV3C-GFP (mouse (printed only as mPiezo1)) (UniProt E2JF22)
Experiment: SEC; Superose-6 (10/300 GL) in 150 mM NaCl, 20 mM tris pH 8, 0.025% C12E10, 4°C
Conditions: remark: other sources report otherwise

stoichiometry N: 3
Substance: mPiezo1-ALFA_(2420)-HRV3C-GFP, E2JF22 1-2547
